B1: KRT33B (parent)
chain: PAVDLNQVLNETRNQYEALVETNR
B2: MATN2 (parent)
chain: FIVDILQFLDIGPDVTRVGLLQYG

Variants of: B1
Assay: protein stability index of a GFP-peptide fusion (GPS, HEK-293T) (PSI 1-6); higher = more stable
Details: c terminus: a fixed tail appended
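Further: lentivirally expressed fusions sorted by FACS into six bins by GFP to DsRed ratio, PSI derived from sequencing read proportions per bin multiplied by bin number.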

Variant	protein stability index
PAVDLNQVLNETRNQYEALVNTNR [E21N]	4.14
PAVDLNQVLNETRNQYEALVFTNR [E21F]	3.23
PAVDLNQVLNETRNQYEALVWTNR [E21W]	2.89
PAVDLNQVLNETRNQYEALVATNR [E21A]	3.85
PAVDLNQVLNETRNQYEALVRTNR [E21R]	4.04
PAVDLNQVLNETRNQYEALVYTNR [E21Y]	3.23
PAVDLNQVLNETRNQYEALVSTNR [E21S]	4.05
PAVDLNQVLNETRNQYEALVMTNR [E21M]	3.67
PAVDLNQVLNETRNQYEALVVTNR [E21V]	3.54
PAVDLNQVLNETRNQYEALVCTNR [E21C]	3.58
PAVDLNQVLNETRNQYEALVTTNR [E21T]	4.06
PAVDLNQVLNETRNQYEALVDTNR [E21D]	3.69
PAVDLNQVLNETRNQYEALVGTNR [E21G]	4.22
PAVDLNQVLNETRNQYEALVPTNR [E21P]	4.18
PAVDLNQVLNETRNQYEALVQTNR [E21Q]	3.95
PAVDLNQVLNETRNQYEALVITNR [E21I]	3.71
PAVDLNQVLNETRNQYEALVHTNR [E21H]	4.19
PAVDLNQVLNETRNQYEALVKTNR [E21K]	4.2
PAVDLNQVLNETRNQYEALVLTNR [E21L]	3.37
PAVDLNQVLNETRNQYEWLVETNR [A18W]	3.72
PAVDLNQVLNETRNQYEYLVETNR [A18Y]	3.96
PAVDLNQVLNETRNQYEVLVETNR [A18V]	4.06
PAVDLNQVLNETRNQYETLVETNR [A18T]	3.67
PAVDLNQVLNETRNQYESLVETNR [A18S]	3.71

Variant	protein stability index
PAVDLNQVLNETRNQYEALVETNM [R24M]	2.16
PAVDLNQVLNETRNQYEALVETNC [R24C]	2.43
PAVDLNQVLNETRNQYEALVETND [R24D]	5.15
PAVDLNQVLNETRNQYEALVETNI [R24I]	2.59
PAVDLNQVLNETRNQYEALVETNY [R24Y]	2.83
PAVDLNQVLNETRNQYEALVETNW [R24W]	3.46
PAVDLNQVLNETRNQYEALVETNK [R24K]	3.97
PAVDLNQVLNETRNQYEALVETNF [R24F]	3
PAVDLNQVLNETRNQYEALVETNQ [R24Q]	4.16
PAVDLNQVLNETRNQYEALVETNE [R24E]	4.13
PAVDLNQVLNETRNQYEALVETNG [R24G]	4.72
PAVDLNQVLNETRNQYEALVETNP [R24P]	4.94
PAVDLNQVLNETRNQYEALVETNT [R24T]	3.87
PAVDLNQVLNETRNQYEALVETNL [R24L]	2.54
PAVDLNQVLNETRNQYEALVETNN [R24N]	4.16
PAVDLNQVLNETRNQYEALVETNS [R24S]	4.15
PAVDLNQVLNETRNQYEALVETNA [R24A]	4
PAVDLNQVLNETRNQYEALVETNV [R24V]	1.45
PAVDLNQVLNETRNQYEALVETNH [R24H]	4.24
PAVDLNQVLNETRNQYEALVETKR [N23K]	4.54
PAVDLNQVLNETRNQYEALVETMR [N23M]	3.29
PAVDLNQVLNETRNQYEALVETSR [N23S]	4.25
PAVDLNQVLNETRNQYEALVETQR [N23Q]	4.43
PAVDLNQVLNETRNQYEALVETER [N23E]	4.51

Variant	protein stability index
PAVDLNQVLNETRNQYEALVETYR [N23Y]	3.71
PAVDLNQVLNETRNQYEALVETWR [N23W]	3.36
PAVDLNQVLNETRNQYEALVETRR [N23R]	4.31
PAVDLNQVLNETRNQYEALVETPR [N23P]	4.54
PAVDLNQVLNETRNQYEALVETLR [N23L]	3.06
PAVDLNQVLNETRNQYEALVETDR [N23D]	5.06
PAVDLNQVLNETRNQYEALVETIR [N23I]	3.24
PAVDLNQVLNETRNQYEALVETFR [N23F]	2.58
PAVDLNQVLNETRNQYEALVETAR [N23A]	4.3
PAVDLNQVLNETRNQYEALVETGR [N23G]	4.07
PAVDLNQVLNETRNQYEALVETHR [N23H]	4.35
PAVDLNQVLNETRNQYEALVETVR [N23V]	3.27
PAVDLNQVLNETRNQYEALVETTR [N23T]	4.46
PAVDLNQVLNETRNQYEALVETCR [N23C]	4.03
PAVDLNQVLNETRNQYEALVEKNR [T22K]	3.7
PAVDLNQVLNETRNQYEALVERNR [T22R]	4.02
PAVDLNQVLNETRNQYEALVESNR [T22S]	4.43
PAVDLNQVLNETRNQYEALVEMNR [T22M]	3.33
PAVDLNQVLNETRNQYEALVECNR [T22C]	3.78
PAVDLNQVLNETRNQYEALVEINR [T22I]	3.02
PAVDLNQVLNETRNQYEALVENNR [T22N]	4.5
PAVDLNQVLNETRNQYEALVEDNR [T22D]	4.8
PAVDLNQVLNETRNQYEALVEGNR [T22G]	4.73
PAVDLNQVLNETRNQYEALVEHNR [T22H]	3.98

Variant	protein stability index
PAVDLNQVLNETRNQYEALVEYNR [T22Y]	4.57
PAVDLNQVLNETRNQYEALVEVNR [T22V]	1.57
PAVDLNQVLNETRNQYEALVEWNR [T22W]	3.88
PAVDLNQVLNETRNQYEALVEENR [T22E]	4.05
PAVDLNQVLNETRNQYEALVEPNR [T22P]	4.65
PAVDLNQVLNETRNQYEALVEFNR [T22F]	3.61
PAVDLNQVLNETRNQYEALVEQNR [T22Q]	3.94
PAVDLNQVLNETRNQYEALVELNR [T22L]	2.23
PAVDLNQVLNETRNQYEALVEANR [T22A]	3.94
PAVDLNQVLNETRNQYEAMVETNR [L19M]	3.89
PAVDLNQVLNETRNQYEAVVETNR [L19V]	4.85
PAVDLNQVLNETRNQYEAYVETNR [L19Y]	4.61
PAVDLNQVLNETRNQYEACVETNR [L19C]	4.53
PAVDLNQVLNETRNQYEAWVETNR [L19W]	4.25
PAVDLNQVLNETRNQYEAFVETNR [L19F]	4.11
PAVDLNQVLNETRNQYEATVETNR [L19T]	4.7
PAVDLNQVLNETRNQYEANVETNR [L19N]	4.87
PAVDLNQVLNETRNQYEAHVETNR [L19H]	4.57
PAVDLNQVLNETRNQYEADVETNR [L19D]	5.42
PAVDLNQVLNETRNQYEAQVETNR [L19Q]	5.1
PAVDLNQVLNETRNQYEAPVETNR [L19P]	4.97
PAVDLNQVLNETRNQYEAEVETNR [L19E]	5.19
PAVDLNQVLNETRNQYEASVETNR [L19S]	5.03
PAVDLNQVLNETRNQYEAAVETNR [L19A]	5.03

Variant	protein stability index
PAVDLNQVLNETRNQYEARVETNR [L19R]	4.29
PAVDLNQVLNETRNQYEAKVETNR [L19K]	4.95
PAVDLNQVLNETRNQYEAIVETNR [L19I]	4.11
PAVDLNQVLNETRNQYEAGVETNR [L19G]	4.91
PAVDLNQVLNETRNQYEALNETNR [V20N]	4.45
PAVDLNQVLNETRNQYEALYETNR [V20Y]	4.22
PAVDLNQVLNETRNQYEALFETNR [V20F]	4.09
PAVDLNQVLNETRNQYEALQETNR [V20Q]	4.94
PAVDLNQVLNETRNQYEALWETNR [V20W]	3.62
PAVDLNQVLNETRNQYEALSETNR [V20S]	4.43
PAVDLNQVLNETRNQYEALPETNR [V20P]	4.34
PAVDLNQVLNETRNQYEALIETNR [V20I]	4.39
PAVDLNQVLNETRNQYEALKETNR [V20K]	4.24
PAVDLNQVLNETRNQYEALLETNR [V20L]	3.88
PAVDLNQVLNETRNQYEALTETNR [V20T]	4.95
PAVDLNQVLNETRNQYEALCETNR [V20C]	4.06
PAVDLNQVLNETRNQYEALRETNR [V20R]	4.43
PAVDLNQVLNETRNQYEALHETNR [V20H]	4.92
PAVDLNQVLNETRNQYEALGETNR [V20G]	4.49
PAVDLNQVLNETRNQYEALDETNR [V20D]	5.39
PAVDLNQVLNETRNQYEALAETNR [V20A]	2.74
PAVDLNQVLNETRNQYEALEETNR [V20E]	3.52
PAVDLNQVLNETRNQYEALMETNR [V20M]	2.8

Variants of: B2
Assay: as above
Details: c terminus: a fixed tail appended

Variant	protein stability index
FIVDILQFLDSGPDVTRVGLLQYG [I11S]	2.12
FIVDILQFLDGGPDVTRVGLLQYG [I11G]	3.02
FIVDILQFLDNGPDVTRVGLLQYG [I11N]	2.49
FIVDILQFLDTGPDVTRVGLLQYG [I11T]	2.8
FIVDILQFLDHGPDVTRVGLLQYG [I11H]	4.42
FIVDILQFLDCGPDVTRVGLLQYG [I11C]	1.18
FIVDILQFLDYGPDVTRVGLLQYG [I11Y]	3.28
FIVDDLQFLDIGPDVTRVGLLQYG [I5D]	3.18
FIVDYLQFLDIGPDVTRVGLLQYG [I5Y]	3.16
FIVDQLQFLDIGPDVTRVGLLQYG [I5Q]	1.81
FIVDILQFLDIGPDVTRVGLLNYG [Q22N]	1.93
FIVDILQFLDIGPDVTRVGLLVYG [Q22V]	3.57
FIVDILQFLDIGPDVTRVGLLMYG [Q22M]	2.53
FIVDILQFLDIGPDVTRVGLLAYG [Q22A]	2.48
FIVDILQFLDIGPDVTRVGLLKYG [Q22K]	2.98
FIVDIHQFLDIGPDVTRVGLLQYG [L6H]	3.78
FIVDILQFLDINPDVTRVGLLQYG [G12N]	3.36
FIVDILQFLDITPDVTRVGLLQYG [G12T]	3.93
FIVDILQFLDIGPDVTRVGGLQYG [L20G]	3.72
FIVDILSFLDIGPDVTRVGLLQYG [Q7S]	2.27
FIVDILAFLDIGPDVTRVGLLQYG [Q7A]	3.4
FIVDILPFLDIGPDVTRVGLLQYG [Q7P]	2.12
FIVDILEFLDIGPDVTRVGLLQYG [Q7E]	3.38

Variant	protein stability index
FIVDILQFLWIGPDVTRVGLLQYG [D10W]	2.66
FIVLILQFLDIGPDVTRVGLLQYG [D4L]	2.53
FIVVILQFLDIGPDVTRVGLLQYG [D4V]	2.77
FIVHILQFLDIGPDVTRVGLLQYG [D4H]	4.41
FIVAILQFLDIGPDVTRVGLLQYG [D4A]	2.58
FIVYILQFLDIGPDVTRVGLLQYG [D4Y]	2.58
FIVQILQFLDIGPDVTRVGLLQYG [D4Q]	2.72
FIVDILQFPDIGPDVTRVGLLQYG [L9P]	4.2
FIVDILQFTDIGPDVTRVGLLQYG [L9T]	2.81
FIVDILQFLDIGPDVTRVGLEQYG [L21E]	3.73
FIVDILQFLDIGVDVTRVGLLQYG [P13V]	2.93
FIVDILQFLDIGNDVTRVGLLQYG [P13N]	3.21
FIVDILQFLDIGPDVTRVGLLQYH [G24H]	3.37
FIVDILQFLDIGPDVTRVGLLQYK [G24K]	1.81
FIVDILQFLDIGPDVTRVGLLQYW [G24W]	3.04
FIVDILQFLDIGPDVTRVGLLQYI [G24I]	3.62
FIVDILQFLDIGPDVTRVGLLQYR [G24R]	2.18
FIVDILQFLDIGPDVMRVGLLQYG [T16M]	1.06
FIVDILQFLDIGPSVTRVGLLQYG [D14S]	2.67
FIVDILQFLDIGPHVTRVGLLQYG [D14H]	2.17
FIVDILQFLDIGPIVTRVGLLQYG [D14I]	3.22
FIVDILQFLDIGPPVTRVGLLQYG [D14P]	3.06
FIVDILQFLDIGPEVTRVGLLQYG [D14E]	4.71

Variant	protein stability index
FIDDILQFLDIGPDVTRVGLLQYG [V3D]	3.75
FIVDILQDLDIGPDVTRVGLLQYG [F8D]	2
FIVDILQTLDIGPDVTRVGLLQYG [F8T]	3.44
FIVDILQCLDIGPDVTRVGLLQYG [F8C]	2.21
FIVDILQFLDIGPDVTRVGLLQTG [Y23T]	3.99
FIVDILQFLDIGPDITRVGLLQYG [V15I]	2.16
FIVDILQFLDIGPDMTRVGLLQYG [V15M]	4.35
FIVDILQFLDIGPDPTRVGLLQYG [V15P]	3.2
VIVDILQFLDIGPDVTRVGLLQYG [F1V]	1.05
YIVDILQFLDIGPDVTRVGLLQYG [F1Y]	2.36
FIVDILQFLDIGPDVTNVGLLQYG [R17N]	2.75
FIVDILQFLDIGPDVTGVGLLQYG [R17G]	2.07
FIVDILQFLDIGPDVTLVGLLQYG [R17L]	3.37
FIVDILQFLDIGPDVTRVTLLQYG [G19T]	3.15
FIVDILQFLDIGPDVTRVSLLQYG [G19S]	2.33
FIVDILQFLDIGPDVTRVLLLQYG [G19L]	3.83
FIVDILQFLDIGPDVTRVHLLQYG [G19H]	3.51
FIVDILQFLDIGPDVTRSGLLQYG [V18S]	3.5
FIVDILQFLDIGPDVTRNGLLQYG [V18N]	2.16
FIVDILQFLDIGPDVTRFGLLQYG [V18F]	3.25
FLVDILQFLDIGPDVTRVGLLQYG [I2L]	1.44
FTVDILQFLDIGPDVTRVGLLQYG [I2T]	1.4
FKVDILQFLDIGPDVTRVGLLQYG [I2K]	2.88

Reference: the supplement of paper PMC10567573
